Test results as given in patent US20240010747A1, “ANTI-MRP4 (ENCODED BY ABCC4 GENE) ANTIBODIES AND USES THEREOF” (Kenjockety Biotechnology, Inc., priority 2020, published 2024).

T1: human ABCC4 (human, UniProt O15439 1-1325)
T1 construct: Expressed on murine C6 cells stably transfected with human ABCC4 cDNA with C-terminal FLAG tag; also called MRP4; Multidrug resistance protein 4; not shown: C-terminal fused FLAG tag
T1 sequence: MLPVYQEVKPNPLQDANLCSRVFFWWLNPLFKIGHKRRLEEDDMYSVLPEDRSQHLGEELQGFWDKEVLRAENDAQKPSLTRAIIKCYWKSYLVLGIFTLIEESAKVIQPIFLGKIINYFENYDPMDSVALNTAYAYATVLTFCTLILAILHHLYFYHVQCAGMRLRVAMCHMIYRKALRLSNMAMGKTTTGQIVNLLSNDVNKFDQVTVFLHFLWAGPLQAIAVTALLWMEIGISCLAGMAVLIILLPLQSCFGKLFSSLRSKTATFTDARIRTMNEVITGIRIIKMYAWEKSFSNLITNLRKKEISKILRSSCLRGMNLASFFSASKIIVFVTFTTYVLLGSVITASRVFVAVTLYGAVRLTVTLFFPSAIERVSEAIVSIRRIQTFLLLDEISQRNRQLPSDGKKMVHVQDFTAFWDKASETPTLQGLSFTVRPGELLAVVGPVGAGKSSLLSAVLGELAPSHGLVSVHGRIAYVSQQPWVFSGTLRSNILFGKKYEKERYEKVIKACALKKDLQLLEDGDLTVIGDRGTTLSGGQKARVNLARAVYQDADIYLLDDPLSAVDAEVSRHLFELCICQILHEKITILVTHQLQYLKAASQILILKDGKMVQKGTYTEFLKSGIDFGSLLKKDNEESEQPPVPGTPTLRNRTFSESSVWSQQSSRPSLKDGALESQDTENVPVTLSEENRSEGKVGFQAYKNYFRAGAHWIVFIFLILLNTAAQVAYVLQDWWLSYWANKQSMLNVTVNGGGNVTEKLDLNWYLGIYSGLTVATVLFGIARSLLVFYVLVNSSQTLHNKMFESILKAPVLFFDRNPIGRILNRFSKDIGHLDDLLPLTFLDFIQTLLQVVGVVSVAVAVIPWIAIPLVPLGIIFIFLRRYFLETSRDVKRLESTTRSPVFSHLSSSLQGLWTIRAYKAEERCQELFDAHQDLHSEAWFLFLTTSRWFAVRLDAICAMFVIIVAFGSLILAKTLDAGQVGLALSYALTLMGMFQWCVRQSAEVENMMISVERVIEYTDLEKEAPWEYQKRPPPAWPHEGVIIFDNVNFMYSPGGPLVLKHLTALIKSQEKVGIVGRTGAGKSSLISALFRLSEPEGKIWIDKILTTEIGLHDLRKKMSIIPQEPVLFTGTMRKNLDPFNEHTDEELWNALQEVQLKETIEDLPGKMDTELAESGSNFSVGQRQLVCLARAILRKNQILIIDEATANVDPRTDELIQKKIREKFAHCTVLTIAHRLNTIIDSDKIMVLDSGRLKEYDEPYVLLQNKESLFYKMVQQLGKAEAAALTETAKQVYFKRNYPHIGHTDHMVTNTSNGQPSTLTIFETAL

T2: human ABCC4 (Homo sapiens, UniProt O15439)
T2 construct: expressed in transfected cells
T2 sequence (O15439 1-1325): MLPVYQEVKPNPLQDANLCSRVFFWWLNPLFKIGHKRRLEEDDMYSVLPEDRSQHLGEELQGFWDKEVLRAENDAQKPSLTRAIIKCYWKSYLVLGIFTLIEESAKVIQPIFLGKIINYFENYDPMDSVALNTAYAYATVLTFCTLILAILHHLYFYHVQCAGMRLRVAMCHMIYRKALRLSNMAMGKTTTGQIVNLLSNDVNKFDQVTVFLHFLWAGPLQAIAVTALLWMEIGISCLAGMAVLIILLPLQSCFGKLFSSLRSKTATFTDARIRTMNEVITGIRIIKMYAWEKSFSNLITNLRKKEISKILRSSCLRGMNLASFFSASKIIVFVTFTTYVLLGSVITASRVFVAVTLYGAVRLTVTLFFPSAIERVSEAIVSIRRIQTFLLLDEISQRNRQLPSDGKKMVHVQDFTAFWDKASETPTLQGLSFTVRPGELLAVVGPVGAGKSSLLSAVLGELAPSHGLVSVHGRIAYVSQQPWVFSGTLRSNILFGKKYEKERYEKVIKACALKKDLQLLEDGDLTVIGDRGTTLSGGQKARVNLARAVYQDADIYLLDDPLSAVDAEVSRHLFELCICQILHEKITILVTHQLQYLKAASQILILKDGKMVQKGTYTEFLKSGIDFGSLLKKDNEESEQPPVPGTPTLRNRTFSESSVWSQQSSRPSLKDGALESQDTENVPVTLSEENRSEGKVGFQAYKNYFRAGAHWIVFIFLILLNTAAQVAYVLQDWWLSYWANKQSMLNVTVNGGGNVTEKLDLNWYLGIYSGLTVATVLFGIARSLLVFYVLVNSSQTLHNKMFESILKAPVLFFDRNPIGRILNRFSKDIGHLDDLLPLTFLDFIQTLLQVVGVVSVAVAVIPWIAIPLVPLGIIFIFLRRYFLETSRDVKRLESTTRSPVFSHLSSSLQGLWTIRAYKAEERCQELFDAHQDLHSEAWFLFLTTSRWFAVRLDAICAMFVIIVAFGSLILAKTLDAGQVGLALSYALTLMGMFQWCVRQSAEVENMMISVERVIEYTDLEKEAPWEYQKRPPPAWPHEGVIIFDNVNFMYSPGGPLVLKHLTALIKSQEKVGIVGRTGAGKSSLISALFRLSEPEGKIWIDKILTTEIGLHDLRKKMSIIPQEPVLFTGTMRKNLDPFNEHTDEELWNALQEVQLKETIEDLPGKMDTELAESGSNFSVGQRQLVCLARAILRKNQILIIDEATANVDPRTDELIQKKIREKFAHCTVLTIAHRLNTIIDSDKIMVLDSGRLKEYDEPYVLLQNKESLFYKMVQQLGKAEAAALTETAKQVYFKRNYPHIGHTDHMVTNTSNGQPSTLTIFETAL


What was measured:
cynomolgus ABCC4 = assay: Flow cytometry (FACS) binding to C6 cells stably transfected to express cynomolgus ABCC4 (different experiment, different C6.cC4 cell line, Table 4); details: for binding to cynomolgus ABCC4 expressed on cell surface: Table 4 study, stated in words; for Cynomolgus ABCC4 binding: different C6.cC4 cell line, C6 cells stably transfected to express cynomolgus ABCC4, FACS, Table 4
Summary of the method: (§1)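 Murine C6 cells stably expressing FLAG-tagged human or cynomolgus ABCC4 incubated 30 min on ice with antibodies, either 5 ug/mL or serially diluted from 100 ug/mL, in PBS+2% FBS+0.02% azide. Detection with PE anti-human IgG F(ab′)2 by flow cytometry; EC50 at half-maximal MFI; negative below background, positive >3× background.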

human ABCC4 [1] = target: T1, human ABCC4; assay: FACS, C6 cells stably expressing human ABCC4; + = MFI>3x background
Procedure: Antibody binding to cells was evaluated by flow cytometry. Murine C6 cells stably transfected to express human or cynomolgus ABCC4 were washed once in flow cytometry buffer (PBS+2% FBS+0.02% sodium azide), resuspended at 2×10\hat{ }6 cells/mL in flow cytometry buffer, and dispensed into 96-well microtiter plates at 0.1 mL/well. Recombinant antibodies were added to cells at 5 ug/mL for initial binding confirmation, or serially diluted from 100 ug/mL in flow cytometry buffer. After incubating cells on ice for 30 min, cells were washed twice with flow cytometry buffer. Bound antibody was detected with PE-labeled F(ab′)₂ fragment goat anti-human IgG (Jackson ImmunoResearch) and evaluated on an Attune N×T flow cytometer. EC50 is calculated to be the concentration of antibody that gives half maximal response.

human ABCC4 [2] = target: T2, human ABCC4; assay: Flow cytometry (FACS) binding to C6 cells stably transfected to express human ABCC4 (different experiment, Table 4); details: for Human ABCC4 binding: C6 cells stably transfected to express human ABCC4, FACS, different experiment, Table 4; for binding to human ABCC4 expressed on cell surface: Table 4 study, stated in words
Summary of the method: as §1

binding result (human ABCC4 [1])	Human ABCC4 binding (human ABCC4 [2])	binding to human ABCC4 expressed on cell surface (human ABCC4 [2])	Molecule	binding to cynomolgus ABCC4 expressed on cell surface (cynomolgus ABCC4)	Cynomolgus ABCC4 binding (cynomolgus ABCC4)
binds	+ (Positive (+)=MFI>3× background level)	bind to both human and cynomolgus ABCC4	C4.1054 (antibody, V domains shown) VH: QVQLLQSGAALVKPGASVKMSCKPSGYTFTDYWVSWVKQSHGKSLEWIGEIYPNNGATNFNEKFKGKATLTVDKSTSTAYMELSRLTSEDSAIYYCPSRKYGYNWNFDYWGQGTMVTVSS VL: DIVLTQSPALAVSLGQRATISCRARQSVSISRYNLMHWYQQKPGQQPKVLIYRASNLASGIPARFSGSGSGTDFTLTIDPVQADDIATYYCQQSRDSPWTFGGGTKLELK	bind to both human and cynomolgus ABCC4	+ (Positive (+)=MFI>3× background level)
binds	+ (Positive (+)=MFI>3× background level)	bind to both human and cynomolgus ABCC4	C4.1131 (antibody, V domains shown) VH: EVKLVESDGGLVQPRKSLKLSCAASGFTFTDYYMAWVRQGPTMGLEWVATISNDGSTKYYRDSVKGRFTLSRDNAKTTLHLQMDSLRSEDTATYYCARLTIRYKGVMDAWGQGASVTVSS VL: DVVMTQSPSHLAASPGESVSINCKASKNIYKYLAWYQQKPGKTNKLLIYSGSTLQSGTPSRFSGSGSGSDFTLTIRNLEPEDFGLYYCQHHNEYPPTFGGGTKLEIK	bind to both human and cynomolgus ABCC4	+ (Positive (+)=MFI>3× background level)
binds	+ (Positive (+)=MFI>3× background level)	bind to both human and cynomolgus ABCC4	C4.1134 (antibody, V domains shown) VH: EVQLVESDGGLVQPGRSLKLSCAASGFTFSDFYMAWVRQAPTKGLEWIATISHDGRNTFYRDSVKGRFTISRDNAKRALYLQMDSLRSEDTATYYCASLTTRYKGVMEAWGQGASVTVSS VL: DVVMTQSPSHLAASPGESVSINCKASKNIYKYLAWYQQKPGKTNKLLIYSGSTLQSGTPSRFSGSGSGSDFTLTIRNLEPEDFGLYYCQHHNEYPPTFGGGTKLEIK	bind to both human and cynomolgus ABCC4	+ (Positive (+)=MFI>3× background level)
